Measurements taken from patent publication US20210324050A1 (published 2021).
Read-outs that look alike come from different tables or passages of the source.

Key:
GII.4 Sydney 2012 VLP = GII.4 Sydney 2012 VLP (UniProt P54635 1-538); assay: VLP-PGM blockade
GI.3 [1] = molecular target: GI.3 (norovirus GI.3); assay: VLP-PGM blockade
GII.13 = GII.13 (norovirus GII.13); assay: ELISA
GI.3 [2] = molecular target: GI.3 (norovirus GI.3); assay: ELISA
GII.17 = GII.17 (norovirus GII.17); assay: ELISA
GII.3 = GII.3 (norovirus GII.3); assay: ELISA
GI.3 Protruding = GI.3 Protruding (norovirus GI.3); assay: ELISA
GII.6 (AF414410) VLPs [3] = molecular target: GII.6 (AF414410) VLPs (norovirus GII.6); assay: ELISA
[4] = molecular target: T1, GII.4 Sydney 2012 shell (S) domain (UniProt P54635 1-221); assay: ELISA
T1 chain: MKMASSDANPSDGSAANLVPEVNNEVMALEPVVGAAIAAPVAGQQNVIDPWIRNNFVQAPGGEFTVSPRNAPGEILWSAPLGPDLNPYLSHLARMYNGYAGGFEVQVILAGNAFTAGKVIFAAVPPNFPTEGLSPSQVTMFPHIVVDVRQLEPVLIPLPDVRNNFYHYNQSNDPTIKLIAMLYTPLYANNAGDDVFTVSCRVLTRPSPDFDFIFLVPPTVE

GII.6 (AF414410) VLPs [5] = molecular target: GII.6 (AF414410) VLPs (norovirus GII.6); assay: VLP-PGM blockade
[6] = molecular target: T2, GII.4 Houston 2002 (ABY27560.1) VLPs (UniProt P54635 1-539); assay: ELISA binding
[7] = molecular target: T2, GII.4 Houston 2002 (ABY27560.1) VLPs; assay: VLP blockade
[8] = molecular target: T1, GII.4 Sydney 2012 shell (S) domain; assay: ELISA
GII.4 Houston 2002 VLP [9] = molecular target: T3, GII.4 Houston 2002 VLP (UniProt P54635 1-539); assay: ELISA binding
GII.4 Houston 2002 VLP [10] = molecular target: T3, GII.4 Houston 2002 VLP; assay: VLP blockade
Protruding domain = assay: ELISA
GI.2 (AF435807) VLPs = GI.2 (AF435807) VLPs (norovirus GI.2); assay: ELISA
GI.1 (M87661) VLPs = molecular target: T4, GI.1 (M87661) VLPs (UniProt Q83884 1-530; Q83885 1-212); assay: ELISA
T4 VP1: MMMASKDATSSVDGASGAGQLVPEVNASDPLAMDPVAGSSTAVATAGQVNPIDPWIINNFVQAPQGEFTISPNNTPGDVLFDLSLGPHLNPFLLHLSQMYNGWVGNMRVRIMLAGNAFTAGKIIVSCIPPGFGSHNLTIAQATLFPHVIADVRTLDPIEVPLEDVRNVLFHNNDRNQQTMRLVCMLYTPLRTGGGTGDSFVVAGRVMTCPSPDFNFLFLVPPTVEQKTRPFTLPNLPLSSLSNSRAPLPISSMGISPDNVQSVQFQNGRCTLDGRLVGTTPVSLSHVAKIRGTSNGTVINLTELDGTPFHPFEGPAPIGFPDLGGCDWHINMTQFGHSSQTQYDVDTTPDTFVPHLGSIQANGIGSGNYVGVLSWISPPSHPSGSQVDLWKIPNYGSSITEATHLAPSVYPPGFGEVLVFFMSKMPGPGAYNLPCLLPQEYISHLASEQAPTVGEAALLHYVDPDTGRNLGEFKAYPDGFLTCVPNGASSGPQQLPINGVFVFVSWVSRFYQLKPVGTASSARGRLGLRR
T4 VP2: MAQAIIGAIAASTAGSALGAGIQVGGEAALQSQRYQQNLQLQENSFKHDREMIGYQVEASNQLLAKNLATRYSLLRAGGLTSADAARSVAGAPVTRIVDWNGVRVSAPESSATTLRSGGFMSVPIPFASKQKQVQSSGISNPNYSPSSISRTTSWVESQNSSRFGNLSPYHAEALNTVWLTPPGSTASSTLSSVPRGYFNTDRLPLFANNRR

B1: 232 (antibody, V domains shown)
VH: QVQLKQWGAGLLKSSETLSLTCAFNGNSFGAFYWSWIRLSPGKGLEWIGEVNYLGGADYNPSLKSRVTMSADTSKRQFSLSLKSVTAADTGVYFCARGRPHDYSPGSYSRPRRYYGLDVWGQGTTVTVSS
VL: EIVLTQSPATLSLSPGDSATLSCRASQAVSTTYLAWYQQTRGQAPRLLIHGTYTRAIGIPDKFSGTGSGTDFTLTISGLAPEDFAVYYCQQYSSSPYTFGQGTKIEIT
GII.4 Sydney 2012 VLP
  EC50: 4.4 µg/mL

B2: 178.6 (antibody, V domains shown)
VH: QVQLVESGGGVVQPGRSLRLSCAASGFTFSTYGMNWVRQAPGRGLEWVADISYDGSNSRYADSVKGRFTISRDNSKNTLSLQMNGLRTEDTAVYYCAKDWYLAMAGAAFDSWGPGTLVTVSS
VL: SSELTQDPVVSVALGQTVRITCQGDSLTTFYASWFQQKPGQAPALVLYGNDNRPSGIPDRFSGSRSGNTASLTITGAQAEDEADYYCNSRDSSGKPSFGGGTKLTVL
GI.3 [1]
  EC50: 470 nM
GII.13
  EC50: 18 nM
GI.3 [2]
  EC50: 83 nM
GII.17
  EC50: 16 nM
GII.3
  EC50: 29 nM
GI.3 Protruding
  EC50: 336 nM

B3: NORO-279A (antibody, V domains shown)
VH: QVQLVESGGGVVQPGRSLRLSCAASGFTFTKYGMHWVRQAPGKGLEWVAFIAYDGSVKYYGDSAKGRFAISRDNPKNTVYLQMNSLRAEDTAVYYCAKVEIHYYSNSLLGMDVWGQGTLVTVSS
VL: QSVLTQPPSASGTPGQRVTISCSGGNSNIGISYVYWYQHLPGTAPKLLISKNNLRPSGVPDRFSASKSGTSASLAISGLRSEDEAEYYCATLDINMTWVFGGGTKLTVL
GII.6 (AF414410) VLPs [3]
  EC50: 14 nM
[4]
  EC50: 0.4 µg/mL
GII.6 (AF414410) VLPs [5]
  EC50: 32 nM
[6]
  EC50: 0.3 µg/mL
[7]
  EC50: > 100 µg/mL
[8]
  EC50: 3 nM

B4: 327A (antibody, V domains shown)
VH: QVQLEVSGGGLVKPGGSLRLSCAASGFTFTDYYMSWIRQAPGKGLEWVAYISGIMSSTKYADSVKGRFTISRDNGKNSVYLQMNSLTAEDTAVYYCARERVEPPSAVTDFWGQGTLVTVSS
VL: QSVLTQSPSVSGAPGQRVTISCTGTSSNIGAGYDVHWYQQFPGTAPKLLISHNTNRPSGVPDRFSGSKSGTSASLAITGLQAEDEADYYCQSFDSSLRGSRVFGGGTKLTVL
GII.4 Sydney 2012 VLP
  EC50: 5 µg/mL
GII.4 Houston 2002 VLP [9]
  EC50: 0.3 µg/mL
GII.4 Houston 2002 VLP [10]
  EC50: 2.2 µg/mL
Protruding domain
  EC50: 0.5 µg/mL

B5: 246A (antibody, V domains shown)
VH: EVHLVESGGGLVKPGGSLRLSCAASGFTFSRYGMHWVRQAPGKGLEWVSSIVIRSDYKYYADSVKGRFTISRDNAKNSLYLQMNSLRADDTAVYYCARDLVEPGITPVGCDYWGRGTLVTVSS
VL: SNELTQAPSVSVSPGQTARITCFGDALANQYSYWYQRKPGQAPVLVIYKDSERPSGIPQRFSASNSGTTVTLTITGVQAEDEADYFCQSADSTGIYKVFGGGTKLTVL
GII.4 Sydney 2012 VLP
  EC50: 7.4 µg/mL
GII.4 Houston 2002 VLP [10]
  EC50: 2.1 µg/mL
Protruding domain
  EC50: 0.9 µg/mL

B6: 310A (antibody, V domains shown)
VH: EVQLVESGGGLVRPGESLRLSCVASGFSVSDNYMSWVRQAPGKGLQWVSVIYSGGTTFYTDSVKGRFTISRDKSKNTLFLQMNSLRAEDTAVYFCTRDPSQYYDSRGHYYQTFTPSFDSWGQGTLVTVSS
VL: DIQMTQSPSVMSASVGDRVTITCRASQDISDYLAWFQQKPGKVPKRLIYAASSLQNGVPSRFSGSGSGTEFTLTISSLQPEDFATYYCLQHDTYPLTFGGGTKVEIK
GI.3 [1]
  EC50: 192 nM
GII.13
  EC50: 53 nM
GI.3 [2]
  EC50: 24 nM
GII.17
  EC50: 40 nM
GII.3
  EC50: 15 nM
GI.3 Protruding
  EC50: 60 nM

B7: NORO-310A (antibody, V domains shown)
VH: EVQLVESGGGLVRPGESLRLSCVASGFSVSDNYMSWVRQAPGKGLQWVSVIYSGGTTFYTDSVKGRFTISRDKSKNTLFLQMNSLRAEDTAVYFCTRDPSQYYDSRGHYYQTFTPSFDSWGQGTLVTVSS
VL: DIQMTQSPSVMSASVGDRVTITCRASQDISDYLAWFQQKPGKVPKRLIYAASSLQNGVPSRFSGSGSGTEFTLTISSLQPEDFATYYCLQHDTYPLTFGGGTKVEIK
GII.6 (AF414410) VLPs [3]
  EC50: 44 nM
[4]
  EC50: 1.8 µg/mL
[6]
  EC50: 0.6 µg/mL
[7]
  EC50: > 100 µg/mL
[8]
  EC50: 19 nM

B8: NORO-168.2 (antibody, V domains shown)
VH: QVQLVESGGGVVQPGRSLRLSCAASGFTFSSYAMHWVRQAPGKGLEWVAVISYDGSNKYYADSVKGRFTISRDNSKNTLYLQMNSLRAEDTAVYYCARSVIGYYYYGMDVWGQGTLVTVSS
VL: QPVLTQPPSASASLGASVTLTCTLSSGYSNYKVDWYQQRPGKGPRFVMRVGTGGIVGSKGDGIPDRFSVLGSGLNRYLTIKNIQEEDESDYHCGADHGSGILFGGGTKLTVL
GII.6 (AF414410) VLPs [3]
  EC50: 198 nM
GI.2 (AF435807) VLPs
  EC50: 265 nM
GII.6 (AF414410) VLPs [5]
  EC50: 7 nM
[8]
  EC50: 78 nM

B9: NORO-202A.1 (antibody, V domains shown)
VH: QVQLVQSGAEVKKPGASVKVSCKASEYTFTGYYLQWVRQAPGHGLEWMGWINPSGGTKYSQKFQGRVTMTRDTSITTVYMELSRLRSDDTAVYYCARDLLRNWGDHDAFDVWGQGTMVTVSS
VL: QSVLTQPPSASETPGQGVTISCSGSSSNIGSNFVCWYQQVPGTAPKLLIYKNNQRPSGVPDRFSGSKSGTSASLAISGLRSEDEADYYCSAWDDSLSGPVFGGGTKLTVL
[4]
  EC50: 0.2 µg/mL
GII.6 (AF414410) VLPs [5]
  EC50: 47 nM
[6]
  EC50: 0.1 µg/mL
[7]
  EC50: > 100 µg/mL
[8]
  EC50: 3 nM

B10: 323A (antibody, V domains shown)
VH: QVQLVESGGGVVQPGRSLRLSCAASGFTFSGSSLHWVRQAPGKGLEWVAAISYDGTNTYYADSVKGRFTLSRDNSKNTLYLQMNSLRAEDTAVYYCAKPVLSPFDYWGQGTLVTVSS
VL: QSALTQPASVSGSPGQSITISCTGTSSDVGGYNYVSWYQQHPGKAPKLLIYEVSNRPSGVSRRFSGSKSGNTASLTISGLQAEDEADYYCCSYTSSSTEVFGGGTKLTVL
GI.3 [1]
  EC50: 15 nM
GI.3 [2]
  EC50: 3 nM
GI.3 Protruding
  EC50: 7 nM

B11: NORO-156.3 (antibody, V domains shown)
VH: QVQLQQWGAGLLKPSETLSLTCAVYGGSFSGYYWSWIRQPPGKGLEWIGEINHSGSTNYNPSLKSRVTISVDTSKNQFSLKLSSVTAADTAVYYCARGLMDVWGQGTLVTVSS
VL: AIRMTQSPSSFSASTGDRVTITCRASQGISSYLAWYQQKPGKAPKLLIYAASTLQSGVPSRFSGSGSGTDFTLTISCLQSEDFATYYCQQYYSYPRTFGQGTKLEIK
GII.6 (AF414410) VLPs [3]
  EC50: 39 nM
GI.2 (AF435807) VLPs
  EC50: 175 nM
GII.6 (AF414410) VLPs [5]
  EC50: 355 nM
GI.1 (M87661) VLPs
  EC50: 42 nM

B12: 156.3 (antibody, V domains shown)
VH: QVQLQQWGAGLLKPSETLSLTCAVYGGSFSGYYWSWIRQPPGKGLEWIGEINHSGSTNYNPSLKSRVTISVDTSKNQFSLKLSSVTAADTAVYYCARGLMDVWGQGTLVTVSS
VL: AIRMTQSPSSFSASTGDRVTITCRASQGISSYLAWYQQKPGKAPKLLIYAASTLQSGVPSRFSGSGSGTDFTLTISCLQSEDFATYYCQQYYSYPRTFGQGTKLEIK
GI.3 [1]
  EC50: 678 nM
GII.13
  EC50: 54 nM
GI.3 [2]
  EC50: 47 nM
GII.17
  EC50: 90 nM
